Stoichiometry N data for two substances are collected here from paper PMC4056859.

In assay [1] the target is ht-ADH single-tryptophan variant W87in (W49F:W167Y) (Bacillus stearothermophilus). The experiment in a line: SEC.
The target of assay [2] is ht-ADH single-tryptophan variant W167in (W49F:W87F) (Bacillus stearothermophilus). The experiment in a line: SEC.

In the case of “ht-ADH single-tryptophan variant W87in (W49F:W167Y) (enzyme)”, the stoichiometry N in assay [1] came to 4.

“ht-ADH single-tryptophan variant W167in (W49F:W87F) (enzyme)” came in with a stoichiometry N in assay [2] of 4.
